Results reported in article PMC3886910 (PLoS Neglected Tropical Diseases, 2014).
Read-outs that look alike come from different tables or passages of the source.

Assays:
[1] = molecular target: T1, SjCP3842 (Schistosoma japonicum, UniProt Q6PYV4); assay: UV-visible differential spectral titration (Soret […] nm); also hemin-agarose pulldown and heme peroxidase binding assay
T1 construct: gene CP3842

[2] = molecular target: SjCP1084, recombinant (Schistosoma japonicum); assay: SDS-PAGE and western blot (oligomer bands)
[3] = molecular target: SjCP1531, recombinant (Schistosoma japonicum); assay: SDS-PAGE and western blot (oligomer bands)
[4] = molecular target: SjCP3842, recombinant (Schistosoma japonicum); assay: SEC
[5] = molecular target: SjCP3842, recombinant (Schistosoma japonicum); assay: SDS-PAGE and western blot (oligomer bands)
[6] = molecular target: native SjCP1084 (Schistosoma japonicum (endogenous in egg and adult worm extracts)); assay: SDS-PAGE and immunoblot (oligomer bands)
[7] = molecular target: native SjCP1531 (Schistosoma japonicum (endogenous in egg and adult worm extracts)); assay: SDS-PAGE and immunoblot (oligomer bands)
[8] = molecular target: native SjCP3842 (Schistosoma japonicum (endogenous in egg and adult worm extracts)); assay: SDS-PAGE and immunoblot (oligomer bands)
[9] = molecular target: native SjCP3842 (Schistosoma japonicum (endogenous in egg and adult worm extracts)); assay: SDS-PAGE and immunoblot (oligomer bands); remark: listed apart in the source

**Q.** `C=CC1=C(C)C2=Cc3c(C=C)c(C)c4[n]3[Fe][n]3c(c(C)c(CCC(=O)O)c3=CC3=NC(=C4)C(C)=C3CCC(=O)O)=CC1=N2` [heme] was tested. Which Kd [1] did it give?
**A.** Its Kd is 1.61 µM.

**Q.** SjCP1084, recombinant (natural protein) was tested. Which stoichiometry N [2] did it give?
**A.** The stoichiometry N was 4.

**Q.** With SjCP1531, recombinant (natural protein) as the molecule, how does the stoichiometry N [3] read?
**A.** The stoichiometry N was 4.

**Q.** With SjCP3842, recombinant (natural protein) as the molecule, how does the stoichiometry N [4] read?
**A.** Its stoichiometry N is 4.

**Q.** And the stoichiometry N [5]?
**A.** Its stoichiometry N is 4.

**Q.** How did the stoichiometry N [6] turn out when native SjCP1084 (natural protein) was run?
**A.** The stoichiometry N was 4.

**Q.** native SjCP1531 (natural protein) was tested. Which stoichiometry N [7] did it give?
**A.** Its stoichiometry N is 4.

**Q.** What does the source list for native SjCP3842 (natural protein)?
**A.** stoichiometry N [8]: 4; stoichiometry N [9]: 2
